Values of other authors as cited in publication PMC6668730.
Where two headings read alike, the source gives them in different places.

Experiments:
[1] = target: Histone H3 (Drosophila melanogaster) (UniProt P02299)
[2] = target: Histone H3 (Homo sapiens) (UniProt P68431)
[3] = target: Histone H3 (Drosophila melanogaster) (UniProt P02299); remark: listed apart in the source
[4] = target: Histone H3 (Homo sapiens) (UniProt P68431); remark: listed apart in the source
[5] = target: Histone H3 (Homo sapiens) (UniProt P68431); remark: listed apart in the source

Sequence of GLP1 ankyrin repeats (Q9H9B1 737-1004): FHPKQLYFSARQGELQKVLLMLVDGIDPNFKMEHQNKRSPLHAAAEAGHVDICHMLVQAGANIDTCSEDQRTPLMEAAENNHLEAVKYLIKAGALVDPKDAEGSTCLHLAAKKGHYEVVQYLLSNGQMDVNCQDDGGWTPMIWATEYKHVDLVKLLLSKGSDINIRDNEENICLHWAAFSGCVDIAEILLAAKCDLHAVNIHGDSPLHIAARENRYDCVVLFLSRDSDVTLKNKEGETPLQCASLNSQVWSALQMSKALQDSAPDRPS
Sequence of G9a ankyrin repeats (Q96KQ7 649-879): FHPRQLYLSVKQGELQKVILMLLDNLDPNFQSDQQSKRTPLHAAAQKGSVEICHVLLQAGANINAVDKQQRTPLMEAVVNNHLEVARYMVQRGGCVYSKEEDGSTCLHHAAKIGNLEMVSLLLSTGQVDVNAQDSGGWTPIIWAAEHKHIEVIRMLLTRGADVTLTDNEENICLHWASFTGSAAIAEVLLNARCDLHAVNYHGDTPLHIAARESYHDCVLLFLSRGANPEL

For “GLP1 ankyrin repeats (from UniProt Q9H9B1)”, which Kd [1] is on record?
Its Kd is 7 µM.

What about the Kd [2] of the same substance?
The Kd was 5 µM.

Which Kd [3] does the source give for “G9a ankyrin repeats (from UniProt Q96KQ7)” here?
The Kd was 6 µM.

Which Kd [4] does the source give for BPTF PHD finger (from UniProt Q12830) here?
The Kd was 2.7 µM.

And the Kd [5]?
The Kd was 5 µM.
